This is an account of results in paper PMC3973317, “Solution structure and tandem DNA recognition of the C-terminal effector domain of PmrA from Klebsiella pneumoniae”.

The target of data set [1] is T1, PmrAC (C-terminal effector/DNA-binding domain of PmrA) (Klebsiella pneumoniae, UniProt W9BNR5 121-223).
T1 sequence: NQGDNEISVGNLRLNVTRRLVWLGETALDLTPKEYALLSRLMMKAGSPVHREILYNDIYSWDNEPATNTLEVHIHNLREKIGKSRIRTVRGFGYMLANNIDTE
The data set can be described thus: NMR PRE; Mn2+ or Ca2+; 1:1; label does not affect interaction; 20 mM sodium phosphate, 30 mM NaCl, pH 6.0; FP with 12 nM 6-FAM DNA (temperature not stated); ITC plus 0.5 mM EDTA at 25 C; NMR at 298 K. The following applies: protein: recombinant; tags: N-terminal extra Met; chain copies: 2; label: EDTA spin label (Mn2+/Ca2+); blunt.

The target of data set [2] is T1, PmrAC (C-terminal effector/DNA-binding …). Put plainly: fluorescence polarization; two-site fit, first site (half1); 20 mM sodium phosphate, 30 mM NaCl, pH 6.0; FP with 12 nM 6-FAM DNA (temperature not stated); ITC plus 0.5 mM EDTA at 25 C; NMR at 298 K. The following applies: protein: recombinant; tags: N-terminal extra Met; chain copies: 2; label: 5' 6-FAM (fluorescence polarization); none (NMR); blunt. A general note: Polarisation of emitted light reports the rotation of a fluorescent probe.

Data set [3] shares this target. The data set can be described thus: fluorescence polarization; 20 mM sodium phosphate, 30 mM NaCl, pH 6.0; FP with 12 nM 6-FAM DNA (temperature not stated); ITC plus 0.5 mM EDTA at 25 C; NMR at 298 K. The following applies: protein: recombinant; tags: N-terminal extra Met; chain copies: 2; label: 5' 6-FAM (fluorescence polarization); none (NMR); blunt.
Data set [4] has the same target. Put plainly: NMR titration; range over residues; 20 mM sodium phosphate, 30 mM NaCl, pH 6.0; FP with 12 nM 6-FAM DNA (temperature not stated); ITC plus 0.5 mM EDTA at 25 C; NMR at 298 K. The following applies: protein: recombinant; tags: N-terminal extra Met; chain copies: 2; blunt.
The target is the same in data set [5]. The data set can be described thus: ITC; 1:1 stoichiometry; 0.5 mM EDTA; 20 mM sodium phosphate, 30 mM NaCl, pH 6.0; FP with 12 nM 6-FAM DNA (temperature not stated); ITC plus 0.5 mM EDTA at 25 C; NMR at 298 K. The following applies: protein: recombinant; tags: N-terminal extra Met; chain copies: 2; blunt. (In general: In ITC the heat of successive injections is recorded.)

For data set [6] the target is unchanged. The data set can be described thus: NMR PRE; Mn2+ or Ca2+; 2:1 protein:DNA; label does not affect interaction; 20 mM sodium phosphate, 30 mM NaCl, pH 6.0; FP with 12 nM 6-FAM DNA (temperature not stated); ITC plus 0.5 mM EDTA at 25 C; NMR at 298 K. The following applies: protein: recombinant; tags: N-terminal extra Met; chain copies: 2; label: EDTA spin label (Mn2+/Ca2+); blunt.

Data set [7] has the same target. Put plainly: ITC; 2:1 protein:DNA; one-site fit; 0.5 mM EDTA; 20 mM sodium phosphate, 30 mM NaCl, pH 6.0; FP with 12 nM 6-FAM DNA (temperature not stated); ITC plus 0.5 mM EDTA at 25 C; NMR at 298 K. The following applies: protein: recombinant; tags: N-terminal extra Met; chain copies: 2; blunt.

B1: box1 dT-EDTA at THY4 (dsDNA)
DNA 1: ATTTCTTAATATTATCCTAAGCAAG
DNA 2: CTTGCTTAGGATAATATTAAGAAAT
modifications: dT-EDTA at T4 of strand 1
B1: the binding result in data set [1] is “binds”.

B2: box1 (dsDNA)
DNA 1: ATTTCTTAATATTATCCTAAGCAAG
DNA 2: CTTGCTTAGGATAATATTAAGAAAT
As for B2, the Kd (commonly the free concentration of one partner at which half of the binding sites on the other are occupied at equilibrium, for simple one-to-one binding) in data set [2] amounted to 0.19 ± 0.01 µM.

B3: box1b (dsDNA)
DNA 1: ATTATCCTAAGCAAGG
DNA 2: CCTTGCTTAGGATAAT
Take B3: in data set [3], the Kd came out at 9.3 ± 1.5 µM.

B4: box1a (dsDNA)
DNA 1: AATTTCTTAATATTAT
DNA 2: ATAATATTAAGAAATT
B4: in data set [3], the Kd was 0.13 ± 0.01 µM.

B5: box2b (dsDNA)
DNA 1: CGTTTAAGTCCG
DNA 2: CGGACTTAAACG
Turning to B5, the figures for the Kd in data set [4] and in data set [5] were 31.9 µM and 36.5 ± 9.4 µM, respectively.

B6: box1 dT-EDTA at THY28 (dsDNA)
DNA 1: ATTTCTTAATATTATCCTAAGCAAG
DNA 2: CTTGCTTAGGATAATATTAAGAAAT
modifications: dT-EDTA at THY28 (strand 2, position 3)
With B6, in data set [6], the binding result is given as “binds”.

B7: box2 (dsDNA)
DNA 1: TCATTTTAATTTCGTTTAAGTCCG
DNA 2: CGGACTTAAACGAAATTAAAATGA
As to B7, in data set [7], the Kd came out at 0.97 ± 0.13 µM.
